# From publication doi:10.1101/310227
# Ends that are not written are not given here.
# What was measured:
# [1] = target: Halo-tagged isopeptide-blocker (Spy0128 β-strand11 mimic) (Streptococcus pyogenes); assay: pull-down
# [2] = target: Spy0128 polyprotein I91-Spy0128-I91-Spy0128-I91 (not stated | Streptococcus pyogenes); assay: AFM force spectroscopy
molecule,measurement,setting,value
Spy0128 polyprotein I91-Spy0128-I91-Spy0128-I91,percent of modified Spy0128 after enrichment on Magne-HaloTag-beads,[1],60%
"MEFTDKDMTITFTNKKDAEEDIRSEDLYFQSDNTTPE (also: Halo-tagged, site not given here) [Halo-tagged isopeptide-blocker (Spy0128 β-strand11 mimic)]",percent of AFM traces with at least one modified Spy0128,[2],32.5%
same,percent of Spy0128 blocked,[2],21.1%
